Laboratory results from PMC7786401.

Key:
[1] = molecular target: angiotensin II type 1 receptor A244S (human) (UniProt P30556)
[2] = molecular target: angiotensin II type 1 receptor I103T (human) (UniProt P30556)
[3] = molecular target: angiotensin II type 1 receptor I103T-A244S (human) (UniProt P30556)
[4] = molecular target: angiotensin II type 1 receptor, wild type (human) (UniProt P30556)

Sequence of βarrestin2-RlucII (P32121 whole entry): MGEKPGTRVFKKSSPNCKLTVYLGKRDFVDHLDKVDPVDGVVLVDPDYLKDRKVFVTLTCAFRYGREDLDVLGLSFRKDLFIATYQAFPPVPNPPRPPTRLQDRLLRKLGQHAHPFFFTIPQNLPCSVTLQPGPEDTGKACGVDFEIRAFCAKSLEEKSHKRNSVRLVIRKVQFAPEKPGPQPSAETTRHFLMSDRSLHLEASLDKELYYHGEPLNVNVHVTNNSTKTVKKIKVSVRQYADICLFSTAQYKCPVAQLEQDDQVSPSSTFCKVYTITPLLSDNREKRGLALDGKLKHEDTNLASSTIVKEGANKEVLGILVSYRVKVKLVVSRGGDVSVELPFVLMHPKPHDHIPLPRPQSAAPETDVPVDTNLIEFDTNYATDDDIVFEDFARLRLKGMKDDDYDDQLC

AngII-stimulated β-arrestin 2 recruitment to the membrane (BRET2 between βarrestin2-RlucII and rGFP-CaaX), Emax (% WT) [1]: 106 % WT
AngII-stimulated β-arrestin 2 recruitment to the membrane (BRET2 between βarrestin2-RlucII and rGFP-CaaX), pEC50 of AngII [1]: 8.68
AngII-stimulated β-arrestin 2 recruitment to the membrane (BRET2 between βarrestin2-RlucII and rGFP-CaaX), Emax (% WT) [2]: 97 % WT
AngII-stimulated β-arrestin 2 recruitment to the membrane (BRET2 between βarrestin2-RlucII and rGFP-CaaX), pEC50 of AngII [2]: 8.54
AngII-stimulated β-arrestin 2 recruitment to the membrane (BRET2 between βarrestin2-RlucII and rGFP-CaaX), Emax (% WT) [3]: 50 % WT
AngII-stimulated β-arrestin 2 recruitment to the membrane (BRET2 between βarrestin2-RlucII and rGFP-CaaX), pEC50 of AngII [3]: 8.5
AngII-stimulated β-arrestin 2 recruitment to the membrane (BRET2 between βarrestin2-RlucII and rGFP-CaaX), pEC50 of AngII [4]: 8.49
Substance: βarrestin2-RlucII (from UniProt P32121 1-409) (natural protein)
